Measured values as given in paper PMC5101663.

Target: Acinetobacter phage AP205 SpyTag-VLP (one SpyTag per VLP subunit) (Acinetobacter phage AP205)
Assay: covalent conjugation shown by reduced SDS-PAGE with densitometry; antigen and Spy-VLP mixed at 1.5:1 molar ratio (antigen per VLP subunit), overnight at 4 °C in PBS, 0.2% Polysorbate 80, pH 7.2; covalent SpyTag/SpyCatcher bond

In the case of “HIS-CSP-SpyCatcher antigen (from UniProt Q7K740 25-383)”, the stoichiometry N (CSP antigens per VLP) is reported as 112.
